Test results published in patent US20110280888A1.
Each block holds one molecule with its values, some of them ahead of it.

Assays:
[1] = molecular target: carbohydrate containing epitope on CD43 and/or CEA as expressed on COLO 205 colorectal cancer cells; experiment: flow cytometry on Colo 205 cells, control antibody
[2] = molecular target: carbohydrate containing epitope on CD43 and/or CEA as expressed on COLO 205 colorectal cancer cells; experiment: flow cytometry on Colo 205 cells, secondary antibody alone
[3] = molecular target: carbohydrate containing epitope on CD43 and/or CEA as expressed on SU.86.86 pancreatic cancer cells; experiment: flow cytometry on SU.86.86 cells, secondary antibody alone at 1 ug/ml
[4] = molecular target: carbohydrate containing epitope on CD43 and/or CEA as expressed on COLO 205 colorectal cancer cells; experiment: flow cytometry on Colo 205 cells, antibody at 1 ug/ml, R-PE secondary
[5] = molecular target: carbohydrate containing epitope on CD43 and/or CEA as expressed on SU.86.86 pancreatic cancer cells; experiment: cell-based or functional assay
[6] = molecular target: carbohydrate containing epitope on CD43 and/or CEA as expressed on COLO 205 colorectal cancer cells; experiment: flow cytometry on Colo 205 cells, antibody at 1 ug/ml, R-PE anti-mouse secondary
[7] = molecular target: carbohydrate containing epitope on CD43 and/or CEA as expressed on SU.86.86 pancreatic cancer cells; experiment: flow cytometry on SU.86.86 cells, antibody at 1 ug/ml, R-PE anti-mouse secondary

Molecule: mouse IgG (control antibody of FIG. 3)
background signal (MFI) [1]: 4 MFI

Molecule: R-PE-conjugated goat F(ab')2 anti-mouse IgG(H+L), Southern Biotech, Cat. No.1032-09 (antibody)
background signal (MFI) [2]: 3 MFI
MFI [3]: 6 MFI

Molecule: hIgG1 (control antibody of Table 10)
Median Fluorescence Intensity (MFI) [4]: 6 MFI

Molecule: mIgG3 (control antibody of Table 10)
Median Fluorescence Intensity (MFI) [4]: 7 MFI

Other lines, results leading:

background signal (MFI) [1]: 5 MFI
Molecule: human IgG (control antibody of FIG. 3)

background signal (MFI) [2]: 3 MFI
Molecule: R-PE-conjugated goat anti-human IgG, Southern Biotech, Cat. No.2040-09 (antibody)

% of Annexin V and/or PI positive cells, SU.86.86 cells, 6 h, m5F1 at 2 ug/ml [5]: 60%
% of Annexin V and/or PI positive cells, SU.86.86 cells, 6 h, m5F1 at 4 ug/ml [5]: 72%
% of Annexin V and/or PI positive cells, SU.86.86 cells, 6 h, m5F1 at 8 ug/ml [5]: 78%
% of Annexin V and/or PI positive cells, SU.86.86 cells, 6 h, m5F1 at 16 ug/ml [5]: 89%
% of Annexin V and/or PI positive cells, SU.86.86 cells, 6 h, m5F1 at 32 ug/ml [5]: 91%
Median Fluorescence Intensity (MFI) [6]: 800 MFI
MFI [7]: 131 MFI
B1: murine 5F1 antibody (m5F1) (antibody, V domains shown)
VH: EVQLQQSGPELVKPGASVRMSCTASGYTFTSYVMHWIKQKPGQGLDWIGYINPYNGGTQYNEKFKGKATLTSDKSSSTAYMELSSLTSEDSAVYYCARRTFPYYFDYWGQGTTLTVSS
VL: DVLMTQTPLSLPVSLGDQASISCRSSQSILHSNGNTYLEWYLQKPGQSPKLLIYKVSNRFSGVPDRFSGSGSGTDFTLKISRVEAEDLGVYYCFQGSHAPLTFGAGTKLELK
